# Biological target: T1, His6-RpoA (purified) (UniProt P0A7Z7 1-329)
# T1 construct: also called RNA polymerase alpha subunit
# Assay: pull-down
# Conditions: both partners purified
# T1 sequence (P0A7Z7 whole entry): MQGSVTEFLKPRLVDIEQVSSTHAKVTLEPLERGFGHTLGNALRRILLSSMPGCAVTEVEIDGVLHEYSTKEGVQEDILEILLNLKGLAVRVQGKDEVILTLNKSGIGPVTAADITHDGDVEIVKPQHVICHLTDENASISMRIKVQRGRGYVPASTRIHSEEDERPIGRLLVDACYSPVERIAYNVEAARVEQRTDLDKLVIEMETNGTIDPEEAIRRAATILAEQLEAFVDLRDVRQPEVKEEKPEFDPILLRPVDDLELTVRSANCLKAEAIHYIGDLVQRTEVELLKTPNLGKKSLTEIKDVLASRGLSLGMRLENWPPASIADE
binder,measurement,value
"MBP-InvF (InvF fused to the maltose-binding protein) (natural protein, also called Transcriptional regulator InvF) MSFSESRHNENCLIQEGALLFCEQAVVAPVSGDLVFRPLKIEVLSKLLAFIDGAGLVDTTYAESDKWVLLSPEFRAIWQDRKRCEYWFLQQIITPSPAFNKVLALLRKSESYWLVGYLLAQSTSGNTMRMLGEDYGVSYTHFRRLCSRALGGKAKSELRNWRMAQSLLNSVEGHENITQLAVNHGYSSPSHFSSEIKELIGVSPRKLSNIIQLADK",binding result,binds

# From article PMC10761746 (Scientific Reports, 2024)
